In patent US20240392271A1, “ENGINEERED CASX REPRESSOR SYSTEMS” (Scribe Therapeutics Inc., priority 2021, published 2024):
Substitutions are numbered along the chain they refer to.

Legend:
human B2M locus = assay: Editing (indel rate by NGS) at the B2M locus by catalytically-dead CasX variants (Example 8); assay type: cell-based; conditions: HEK293T, B2M-targeting spacer 7.37, six days after transfection
HBEGF locus = assay type: cell-based, human; conditions: dCasX491-KRAB lentiviral library, spacer 34.28, HEK293T, 2 ng/ml diphtheria toxin 48 hours
[1] = Editing assays comparing gRNA scaffolds; conditions: compared with gRNA scaffold 174
[2] = system: endogenous B2M (beta-2-microglobulin) gene; assay: B2M protein expression by HLA antibody flow cytometry, dXR constructs (Example 1, Table 14); assay type: cell-based, human; conditions: for % cells expressing B2M protein: HEK293T cells, % of cells counted that were positive, biological triplicates
From the text: dXR variant plasmids encoding constructs having the configuration of U6-gRNA+Ef1α-NLS-GGS-dCasX491-GGS-KRAB variant-NLS (dCasX491 refers to catalytically-dead CasX 491), were transiently transfected into HEK293T cells in an arrayed 96-well format. These constructs also contained a 2× FLAG sequence, as well as sequences encoding either a gRNA scaffold 174 (SEQ ID NO: 2238) having a spacer (spacer 7.37) targeting the endogenous B2M (beta-2-microglobulin) gene or a non-targeting control (spacer 0.0), which were all cloned upstream of a P2A-puromycin element on the plasmid. Four different effector domains were tested in addition to the “naked” dCasX491 (KRAB variant domains listed in Table 9; spacer sequences listed in Table 10; sequences of additional elements listed in Table 11). The corresponding protein sequences of the dXR molecule are listed in Table 13, and the generic configuration of the dXR molecule is illustrated in FIG. 38. Positive and negative controls based on a catalytically-dead Cas9 nuclease (with or without a ZNF10 repressor) with a B2M-targeting gRNA (spacer 7.14) or a non-targeting gRNA control (spacer 0.0) were included, along with a catalytically-active CasX 491 and gRNA with the same 7.37 and 0.0 spacers. Two days after transfection, total RNA was harvested, and reverse transcribed to generate a cDNA library. Changes in gene expression were calculated by performing qPCR on the targeted gene and a housekeeping gene as reference. Relative gene expression represents the amount of target-specific RNA relative to a reference gene normalized to the non-targeting guide condition for two biological replicates. In addition to the wells used for RNA measurements, a separate set of wells was harvested seven days post-transfection and analyzed for B2M protein expression. Expression of B2M protein was determined by using an antibody that detects the B2M-dependent HLA protein complex on the cell surface. […]

B1: dCasX527: catalytically-dead CasX 527, SEQ ID NO: 24 (protein)
chain: QEIKRINKIRRRLVKDSNTKKAGKTRGPMKTLLVRVMTPDLRERLENLRKKPENIPQPISNTSRANLNKLLTDYTEMKKAILHVYWEEFQKDPVGLMSRVAQPASKKIDQNKLKPEMDEKGNLTTAGFACSQCGQPLFVYKLEQVSEKGKAYTNYFGRCNVAEHEKLILLAQLKPEKDSDEAVTYSLGKFGQRALDFYSIHVTKESTHPVKPLAQIAGNRYASGPVGKALSDACMGTIASFLSKYQDIIIEHQKVVKGNQKRLESLRELAGKENLEYPSVTLPPQPHTKEGVDAYNEVIARVRMWVNLNLWQKLKLSRDDAKPLLRLKGFPSFPLVERQANEVDWWDMVCNVKKLINEKKEDGKVFWQNLAGYKRQEALRPYLSSEEDRKKGKKFARYQLGDLLLHLEKKHGEDWGKVYDEAWERIDKKVEGLSKHIKLEEERRSEDAQSKAALTDWLRAKASFVIEGLKEADKDEFCRCELKLQKWYGDLRGKPFAIEAENSILDISGFSKQYNCAFIWQKDGVKKLNLYLIINYFKGGKLRFKKIKPEAFEANRFYTVINKKSGEIVPMEVNFNFDDPNLIILPLAFGKRQGREFIWNDLLSLETGSLKLANGRVIEKTLYNRRTRQDEPALFVALTFERREVLDSSNIKPMNLIGVARGENIPAVIALTDPEGCPLSRFKDSLGNPTHILRIGESYKEKQRTIQAKKEVEQRRAGGYSRKYASKAKNLADDMVRNTARDLLYYAVTQDAMLIFANLSRGFGRQGKRTFMAERQYTRMEDWLTAKLAYEGLSKTYLSKTLAQYTSKTCSNCGFTITSADYDRVLEKLKKTATGWMTTINGKELKVEGQITYYNRYKRQNVVKDLSVELDRLSEESVNNDISSWTKGRSGEALSLLKKRFSHRPVQEKFVCLNCGFETHAAEQAALNIARSWLFLRSQEYKKYQTNKTTGNTDKRAFVETWQSFYRKKLKEVWKPAV
percent editing at the B2M locus measured as indel rate by NGS (human B2M locus): did not exhibit editing

B2: DOMAIN_26749: KRAB domain derived from the king cobra, Ophiophagus hannah, SEQ ID NO: 57755; top 10 (protein)
chain: STPVTFEDVVVYFTAAEWVHLTNWQRDFYQAVMMETYELVASVAGDGVPMAEDEEGGVERPVWQYIPRGKRRRKTPQPRAD
modifications: Ophiophagus hannah
log2 (fold change) in abundance of the KRAB domain before and after selection (HBEGF locus): highest log (fold change)

B3: dCasX668: catalytically-dead CasX 668, SEQ ID NO: 59355 (protein)
chain: QEIKRINKIRRRLVKDSNTKKAGKTRGPMKTLLVRVMTPDLRERLENLRKKPENIPQPISNTSRANLNKLLTDYTEMKKAILHVYWEEFQKDPVGLMSRVAQPASKKIDQNKLKPEMDEKGNLTTAGFACSQCGQPLFVYKLEQVSEKGKAYTNYFGRCNVAEHEKLILLAQLKPEKDSDEAVTYSLGKFGQRALDFYSIHVTKESTHPVKPLAQIAGNRYASSPVGKALSDACMGTIASFLSKYQDIIIEHQKVVKGNQKRLESLRELAGKENLEYPSVTLPPQPHTKEGVDAYNEVIARVRMWVNLNLWQKLKLSRDDAKPLLRLKGFPSFPLVERQANEVDWWDMVCNVKKLINEKKEDGKVFWQNLAGYKRQEALRPYLSSEEDRKKGKKFARYQLGDLLLHLEKKHGEDWGKVYDEAWERIDKKVEGLSKHIKLEEERRSEDAQSKAALTDWLRAKASFVIEGLKEADKDEFCRCELKLQKWYGDLRGKPFAIEAENSILDISGFSKQYNCAFIWQKDGVKKLNLYLIINYFKGGKLRFKKIKPEAFEANRFYTVINKKSGEIVPMEVNFNFDDPNLIILPLAFGKRQGREFIWNDLLSLETGSLKLANGRVIEKTLYNRRTRQDEPALFVALTFERREVLDSSNIKPMNLIGVARGENIPAVIALTDPEGCPLSRFKDSLGNPTHILRIGESYKEKQRTIQAKKEVEQRRAGGYSRKYASKAKNLADDMVRNTARDLLYYAVTQDAMLIFANLSRGFGRQGKRTFMAERQYTRMEDWLTAKLAYEGLPSKTYLSKTLAQYTSKTCSNCGFTITSADYDRVLEKLKKTATGWMTTINGKELKVEGQITYYNRYKRQNVVKDLSVELDRLSEESVNNDISSWTKGRSGEALSLLKKRFSHRPVQEKFVCLNCGFETHAAEQAALNIARSWLFLRSQEYKKYQTNKTTGNTDKRAFVETWQSFYRKKLKEVWKPAV
percent editing at the B2M locus measured as indel rate by NGS (human B2M locus): did not exhibit editing

B4: dCasX676: catalytically-dead CasX 676, SEQ ID NO: 59357 (protein)
chain: B3 chain with L169K
percent editing at the B2M locus measured as indel rate by NGS (human B2M locus): did not exhibit editing

B5: 316 scaffold: chimeric RNA scaffold: scaffold 235 with extended stem loop of scaffold 174, SEQ ID NO: 59352, 89 nucleotides (nucleic acid)
guide: ACUGGCGCUUCUAUCUGAUUACUCUGAGCGCCAUCACCAGCGACUAUGUCGUAGUGGGUAAAGCUCCCUCUUCGGAGGGAGCAUCAGAG
modifications: listed as RNA, further chemistry not given here
performance in editing assays [1]: comparably or more favorably than gRNA scaffold 174

B6: dCasX491: catalytically-dead CasX 491, SEQ ID NO: 18 (protein)
chain: QEIKRINKIRRRLVKDSNTKKAGKTGPMKTLLVRVMTPDLRERLENLRKKPENIPQPISNTSRANLNKLLTDYTEMKKAILHVYWEEFQKDPVGLMSRVAQPASKKIDQNKLKPEMDEKGNLTTAGFACSQCGQPLFVYKLEQVSEKGKAYTNYFGRCNVAEHEKLILLAQLKPEKDSDEAVTYSLGKFGQRALDFYSIHVTKESTHPVKPLAQIAGNRYASGPVGKALSDACMGTIASFLSKYQDIIIEHQKVVKGNQKRLESLRELAGKENLEYPSVTLPPQPHTKEGVDAYNEVIARVRMWVNLNLWQKLKLSRDDAKPLLRLKGFPSFPLVERQANEVDWWDMVCNVKKLINEKKEDGKVFWQNLAGYKRQEALRPYLSSEEDRKKGKKFARYQLGDLLLHLEKKHGEDWGKVYDEAWERIDKKVEGLSKHIKLEEERRSEDAQSKAALTDWLRAKASFVIEGLKEADKDEFCRCELKLQKWYGDLRGKPFAIEAENSILDISGFSKQYNCAFIWQKDGVKKLNLYLIINYFKGGKLRFKKIKPEAFEANRFYTVINKKSGEIVPMEVNFNFDDPNLIILPLAFGKRQGREFIWNDLLSLETGSLKLANGRVIEKTLYNRRTRQDEPALFVALTFERREVLDSSNIKPMNLIGVARGENIPAVIALTDPEGCPLSRFKDSLGNPTHILRIGESYKEKQRTIQAKKEVEQRRAGGYSRKYASKAKNLADDMVRNTARDLLYYAVTQDAMLIFANLSRGFGRQGKRTFMAERQYTRMEDWLTAKLAYEGLSKTYLSKTLAQYTSKTCSNCGFTITSADYDRVLEKLKKTATGWMTTINGKELKVEGQITYYNRYKRQNVVKDLSVELDRLSEESVNNDISSWTKGRSGEALSLLKKRFSHRPVQEKFVCLNCGFETHAAEQAALNIARSWLFLRSQEYKKYQTNKTTGNTDKRAFVETWQSFYRKKLKEVWKPAV
% cells expressing B2M protein ([2]; B2M-targeting spacer 7.37): 85.70% | cells negative for the B2M protein ([2]; HEK293T, seven days post-transfection, B2M-targeting gRNA, HLA flow cytometry): ~10% | % cells expressing B2M protein ([2]; non-targeting spacer 0.0): 95.90% | percent editing at the B2M locus measured as indel rate by NGS (human B2M locus): did not exhibit editing
